According to publication PMC5874051, “Gene cloning of a neutral ceramidase from the sphingolipid metabolic pathway based on transcriptome analysis of Amorphophallus muelleri” (PLoS ONE, 2018):

Substrate: CCCCCCCCCCCCC/C=C/[C@@H](O)[C@H](CO)NC(=O)CCCCCCCCCCCNc1ccc([N+](=O)[O-])c2nonc12
Test: hydrolysis of NBD-ceramide, reverse-phase HPLC with DAD detector; Michaelis-Menten and Lineweaver-Burk
Format: biochemical, Amorphophallus muelleri
Details: 37 °C, 1 h, pH of the kinetic assay not clearly stated, labelled compound

B1: AmCDase (A. muelleri neutral ceramidase) (Amorphophallus muelleri) (protein)
chain: MEASSCSRDYKDHDGSFKIWLCVFLDLVLLNGRLVSRSSDYLVGLASYDITGPAADVNMMGYANAEQIVSGVHFRLRARAFIVAEPGGKRVAFVNLDACMASQLVTIKVLERLKTRYGDLYTAENVAISGIHTHAGPGGYLQYVTYIVTSLGFVRQSFDIIVDGIERSIIQAHDNLRPGSIIVNKGELLDAGVNRSPSAYLNNPYDERKKYSYDVDKEMTLLKFVDDEWGPVGSFNWFATHGTSMSRTNSLISGDNKGAAARFMEDWFKQKSTEPAEHDLFRSDDKLNEIPRRVSIIIPRPRENYKNFTQLASSFPATGGERVTSFLSSTQRVRSIFRQGNRPAFVSAFCQSNCGDVSPNVLGAFCIDTGRPCDFNHSTCNGKNELCYGRGPGYPDEFESTRIIGERQLKKAVDLFDTASEQIKGKVDYRHTYINFSQLKVTIPSSNGSEQVVKTCPAAMGFAFAAGTTDGPGAFDFTQGDEKGNPFWRLVRNLLKTPDKVQVECQLPKPILLDTGEMKQPYDWAPSILPLQILRIGQLVILSVPGEFSTMAGRRLRDAVKMMLTSSGNNEFDNNVHIVIAGLTNTYSQYVTTFEEYEIQRYEGASTLYGPHTLSGYIQEFKKLAAALLNKQTVEPGPAPPDLLKKQMSLLPGVVMDAAPLGFNFGDVSDDVPALSKFKEGDKVSATFWSGCPRNDLLTEGTFALVERLNGVDTWVPAYDDDDFSLRFRWSRPSKFSPYSQATIEWRIPKDAPAGVYRLRHSGATKGLIGCINHFTGTSSAFAVR
notes: Ni-NTA and Superdex 200
B1 gave a Km of 34.51 µM.
